Test results: patent publication US20100144634A1 (published 2010)

Legend:
[1] = target: von Willebrand factor (VWF), purified plasma-derived, multimeric, native (UniProt P04275); experiment: SPR (BIAcore), VWF injected under flow over immobilised T5-8CUB, equilibrium fit
[2] = target: von Willebrand factor (VWF), purified plasma-derived, multimeric, native (UniProt P04275); experiment: cell-based or functional assay
[3] = target: von Willebrand factor (VWF), purified plasma-derived, multimeric, native (UniProt P04275)
[4] = target: von Willebrand factor (VWF), purified plasma-derived, multimeric, native (UniProt P04275); experiment: microtiter binding assay, immobilised vWF
[5] = target: recombinant vWF expressed in BHK cells overexpressing PACE/furin (UniProt P04275); experiment: cell-based or functional assay
[6] = target: von Willebrand factor (VWF), purified plasma-derived, multimeric, native (UniProt P04275); experiment: SPR (BIAcore), VWF injected under flow over immobilised T2-8CUB, equilibrium fit
[7] = target: von Willebrand factor (VWF), purified plasma-derived, multimeric, native (UniProt P04275); experiment: SPR (BIAcore) under flow

With “ADAMTS13 TSP1 5-8 repeats plus CUB domains, N-terminal linker and Flag, C-terminal V5-His (from UniProt Q76LX8 884-1191; Q76LX8 1192-1427)” the Kd [1] was 212 nM and the inhibition of proteolytic cleavage of VWF by ADAMTS13 under vortex-induced shear stress, fragment at 150 nM [2] was 75%.

“ADAMTS13 variant truncated after the 8th TSP-1 repeat (lacking the CUB domains), C-terminal V5-His” was tested, and the “cleavage of VWF under vortex-induced mechanic shear stress” value [3] was “A removal of the CUB domains (delCUB) or more (MDTCS) abrogates its ability to cleave VWF”.

“ADAMTS13 variant truncated after the spacer domain, C-terminal V5-His” was tested, and the “cleavage of VWF under vortex-induced mechanic shear stress” value [3] was “A removal of the CUB domains (delCUB) or more (MDTCS) abrogates its ability to cleave VWF”.

Work on “B-domainless derivative of human factor VIII, FVIII-SQ (from UniProt P00451 20-762; P00451 1657-1667; P00451 1668-2351)” yielded a half-maximal effect on vWF proteolysis by ADAMTS13 [2] of 2.5 nM and an increase in vWF proteolysis by ADAMTS13 under shear stress [2] of 10 fold.

“isolated light chain of FVIII (from UniProt P00451 1668-2351)” was tested, and the Kd [4] was 17 nM, the concentration of FVIII-LC achieving the half maximal rate enhancing effect (IC50) [2] was 2 nM and the increase of the maximal proteolytic cleavage product (˜350 kDa) with 5 nM FVIII-LC [2] was 7 to 8 fold.

With “recombinant human full-length coagulation factor VIII (from UniProt P00451 20-1667; P00451 1668-2351)” the half-maximal effect of FVIII on cleavage of rvWF by ADAMTS13 [5] was 3 nM, the increase in product formation with rvWF as substrate in the presence of 20 nM FVIII [5] was 10 fold and the Km of the enhancement of VWF cleavage by ADAMTS13 [2] was 2 to 3 nM. For the same molecule, the concentration of FVIII required for half maximal enhancement in product formation [2] was 3 nM, the enhancement of ADAMTS13 cleavage of plasma vWF (350K product) in the presence of 10-20 nM FVIII [2] was 10 to 12 fold and the half maximal effect of rFVIII on proteolytic cleavage of VWF by ADAMTS13 [2] was 2.9 nM.

B1: ADAMTS13 TSP1 2-8 repeats plus CUB domains, N-terminal linker and Flag, C-terminal V5-His (protein, not shown: small tags and cut ends)
chain: AAQPARRARRTKLALDTKDDDDKHVWTPVAWVWAAVRGPCSVSCGAGLRWVNYSCLDQARKELVETVQCQGSQQPPAWPEACVLEPCPPYWAVGDFGPCSASCGGGLRERPVRCVEAQGSLLKTLPPARCRAGAQQPAVALETCNPQPCPARWEVSEPSSCTSAGGAGLALENETCVPGADGLEAPVTEGPGSVDEKLPAPEPCVGMSCPPGWGHLDATSAGEKAPSPWGSIRTGAQAAHVWTPAAGSCSVSCGRGLMELRFLCMDSALRVPVQEELCGLASKPGSRREVCQAVPCPARWQYKLAACSVSCGRGVVRRILYCARAHGEDDGEEILLDTQCQGLPRPEPQEACSLEPCPPRWKVMSLGPCSASCGLGTARRSVACVQLDQGQDVEVDEAACAALVRPEASVPCLIADCTYRWHVGTWMECSVSCGDGIQRRRDTCLGPQAQAPVPADFCQHLPKPVTVRGCWAGPCVGQGTPSLVPHEEAAAPGRTTATPAGASLEWSQARGLLFSPAPQPRRLLPGPQENSVQSSACGRQHLEPTGTIDMRGPGQADCAVAIGRPLGEVVTLRVLESSLNCSAGDMLLLWGRLTWRKMCRKLLDMTFSSKTNTLVVRQRCGRPGGGVLLRYGSQLAPETFYRECDMQLFGPWGEIVSPSLSPATSNAGGCRLFINVAPHARIAIHALATNMGAGTEGANASYILIRDTHSLRTTAFHGQQVLYWESESSQAEMEFSEGFLKAQASLRGQYWTLQSWVPEMQDPQSWKGKEGT
In the case of B1, the Kd [6] is reported as 140 nM, the inhibition of proteolytic cleavage of VWF by ADAMTS13 under vortex-induced shear stress, fragment at 150 nM [2] is reported as 100% and the fold increase in affinity against T5-8CUB [7] is reported as 1.5 fold.
